Measurements reported in article PMC7367391, “EtMIC3 and its receptors BAG1 and ENDOUL are essential for site-specific invasion of Eimeria tenella in chickens” (Veterinary Research, 2020).

B1: recombinant BAG1 expressed from pET-32a-BAG1 (natural protein, chicken, UniProt F1NPL0 1-209, looked up)
chain: MAVPGAPVSVTVTYSNEKHNIQVASQQEDGEPTLQDMAVLIEQVTGVPVSFQKLIYKGKSLKELEQPLSALGVKNGCKVMLIGKRNSPEEEAELKKLKDLEKSVEQIANKLEEVNKEFTSIQKGFLAKDLQAEALKQLDKRIKGTAEQFMKILEQVDAINLPENFNDCRLKKKGLVKRVQAFLAQCDTVEGNIGQEMDKLQSKNLALAE
B2: recombinant ENDOUL expressed from pET-32a-ENDOUL (natural protein, chicken, UniProt A0A8V0YKR0 1-289, looked up)
chain: MADRKALNHELSKLFNEMWDMDVNRFTPGKDYAIELQGKADAVLQGDSVVQDSAARHLFHYVNEERLKNIKTFATFISLLDNYETSTGVEEIVTPEEIAENNCFLDAILMTGVMKLAHEYLLKKKLAKPNLADFKYQLYDIWFQLYPRKEGDRPDSCGFEHVFVGETRRGKQILGLHNWVQFYLQEKHKQIDYKGYIARKNKTRPDRDDQVLSIQFSWKGSVKPIGSTFIGVSPEFEFALYTVIFLLSEERVTRKTVKIEEYELQIVVCRHGRHIGTAYPVLLNTSNED

Biological target: T1, pGEX-6P-1-EtMIC3 recombinant protein (E. tenella, UniProt B6VCV4 1-988)
T1 sequence (looked up): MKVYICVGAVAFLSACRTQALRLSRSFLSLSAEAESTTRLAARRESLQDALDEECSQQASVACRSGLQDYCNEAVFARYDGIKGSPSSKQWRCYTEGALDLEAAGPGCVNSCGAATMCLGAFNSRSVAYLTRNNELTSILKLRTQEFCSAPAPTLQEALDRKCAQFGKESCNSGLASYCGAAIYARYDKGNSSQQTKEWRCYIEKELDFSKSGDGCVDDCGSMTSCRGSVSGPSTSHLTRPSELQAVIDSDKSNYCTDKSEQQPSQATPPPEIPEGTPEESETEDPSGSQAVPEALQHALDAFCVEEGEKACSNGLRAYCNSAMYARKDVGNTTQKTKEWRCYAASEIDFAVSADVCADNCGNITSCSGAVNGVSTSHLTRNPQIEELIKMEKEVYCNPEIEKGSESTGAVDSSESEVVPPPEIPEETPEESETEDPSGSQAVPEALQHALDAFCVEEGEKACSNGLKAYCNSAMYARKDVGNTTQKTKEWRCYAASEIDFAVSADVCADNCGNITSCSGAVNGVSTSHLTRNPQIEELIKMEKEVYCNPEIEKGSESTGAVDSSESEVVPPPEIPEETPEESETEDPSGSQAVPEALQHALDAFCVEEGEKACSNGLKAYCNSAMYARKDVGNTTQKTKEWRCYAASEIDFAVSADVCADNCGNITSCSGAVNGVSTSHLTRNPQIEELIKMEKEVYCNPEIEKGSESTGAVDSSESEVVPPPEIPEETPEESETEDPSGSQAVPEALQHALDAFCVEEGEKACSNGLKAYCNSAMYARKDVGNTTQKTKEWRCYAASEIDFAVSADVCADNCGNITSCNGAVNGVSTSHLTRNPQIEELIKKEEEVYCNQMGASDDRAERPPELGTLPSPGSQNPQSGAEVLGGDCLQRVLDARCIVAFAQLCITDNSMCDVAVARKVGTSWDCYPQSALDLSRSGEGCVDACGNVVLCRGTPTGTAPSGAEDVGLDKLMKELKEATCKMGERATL
Assay: cell-based or functional assay

Binder	oocyst decrease ratio (%) in chickens challenged with 5 × 10^4 E. tenella sporulated oocysts and injected intravenously with anti-BAG1 serum every day for 7 days	oocyst decrease ratio (%) in chickens challenged with 5 × 10^4 E. tenella sporulated oocysts and injected intravenously with anti-ENDOUL serum every day for 7 days
B1	3.63%	–
B2	–	5.07%
